Laboratory results reported in patent US20240261333A1, “NOVEL TARGETS FOR ENHANCING ANTI-TUMOR IMMUNITY” (THE BROAD INSTITUTE, INC., priority 2021, published 2024).

What was measured:
PSMB6 (human) = PSMB6 (human) (UniProt P28072); assay: IgG control IP from lysate of N-FLAG B3GNT2 cells, mass spectrometry
KPNB1 (human) = KPNB1 (human) (UniProt Q14974); assay: as above
Sequence of KPNB1 (human) (Q14974 whole entry): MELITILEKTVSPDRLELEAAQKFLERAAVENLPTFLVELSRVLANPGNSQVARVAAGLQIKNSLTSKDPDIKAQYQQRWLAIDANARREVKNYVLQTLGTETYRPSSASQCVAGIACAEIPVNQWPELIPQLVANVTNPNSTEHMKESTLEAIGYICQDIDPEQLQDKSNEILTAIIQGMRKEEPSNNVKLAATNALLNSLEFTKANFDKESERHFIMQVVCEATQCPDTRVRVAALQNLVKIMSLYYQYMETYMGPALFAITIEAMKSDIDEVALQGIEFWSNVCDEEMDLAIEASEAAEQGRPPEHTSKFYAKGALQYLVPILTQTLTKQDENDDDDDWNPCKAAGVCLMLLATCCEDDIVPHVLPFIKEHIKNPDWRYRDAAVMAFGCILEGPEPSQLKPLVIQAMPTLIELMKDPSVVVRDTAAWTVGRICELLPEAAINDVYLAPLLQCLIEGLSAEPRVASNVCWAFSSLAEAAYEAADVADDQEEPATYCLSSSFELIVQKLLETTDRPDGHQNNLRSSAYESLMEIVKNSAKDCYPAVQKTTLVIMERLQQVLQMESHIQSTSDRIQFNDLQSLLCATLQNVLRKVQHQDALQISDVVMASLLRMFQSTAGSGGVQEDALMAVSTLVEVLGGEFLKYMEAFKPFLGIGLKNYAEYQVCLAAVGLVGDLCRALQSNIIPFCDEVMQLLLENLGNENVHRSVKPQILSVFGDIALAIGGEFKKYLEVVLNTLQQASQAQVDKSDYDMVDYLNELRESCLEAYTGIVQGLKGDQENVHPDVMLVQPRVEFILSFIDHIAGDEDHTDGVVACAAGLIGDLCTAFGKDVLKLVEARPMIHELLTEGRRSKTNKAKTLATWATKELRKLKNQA

Sequence of PSMB6 (human) (P28072 35-239 limits assumed): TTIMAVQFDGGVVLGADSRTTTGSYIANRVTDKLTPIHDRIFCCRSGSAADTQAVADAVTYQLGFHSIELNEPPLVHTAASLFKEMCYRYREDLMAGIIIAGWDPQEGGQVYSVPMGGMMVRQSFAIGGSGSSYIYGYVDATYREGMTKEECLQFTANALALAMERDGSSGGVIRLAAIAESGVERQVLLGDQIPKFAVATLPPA

With “IgG control (Millipore Sigma 12-371) (antibody)” the co-IP mass spectrometry count (PSMB6 (human)) was 0 and the co-IP mass spectrometry count (KPNB1 (human)) was 0.
